# The RNAGym collection of RNA variant scans (doi:10.7554/elife.80360)
# B1: CPEB3 Ribozyme (parent)
# chain: GGGGGCCACAGCAGAAGCGUUCACGUCGCGGCCCCUGUCAGAUUCUGGUGAAUCUGCGAAUUCUGCUGU
# Variants of: B1
# Assay: self-cleavage, relative activity (ratio to wild type); higher = more cleavage; co-transcriptional
row,Variant,self-cleavage
1,CGGGGCCACAGCAGAAGCGUUCACGUCGCGGCCCCUGUCAGAUUCUGGUGAAUCUGCGAAUUCUGCUCU [G1C G68C],0.219
2,CGGGGCCACAGCAGAAGCGUUCACGUCGCGGCCCCUGUCAGAUUCUGGUGAAUCUGCGAAUUCUGCUUU [G1C G68U],0.297
3,CGGGGCCACAGCAGAAGCGUUCACGUCGCGGCCCCUGUCAGAUUCUGGUGAAUCUGCGAAUUCUGCUAU [G1C G68A],0.304
4,CGGGGCCACAGCAGAAGCGUUCACAUCGCGGCCCCUGUCAGAUUCUGGUGAAUCUGCGAAUUCUGCUGU [G1C G25A],0.0736
5,CGGGGCCACAGCAGAAGCGUUCACCUCGCGGCCCCUGUCAGAUUCUGGUGAAUCUGCGAAUUCUGCUGU [G1C G25C],0.103
6,CGGGGCCACAGCAGAAGCGUUCACUUCGCGGCCCCUGUCAGAUUCUGGUGAAUCUGCGAAUUCUGCUGU [G1C G25U],0.0853
7,CGGGGCCACAGCAGAAGCGUUCACGUCGCGGCCCCUGUCAGACUCUGGUGAAUCUGCGAAUUCUGCUGU [G1C U43C],0.245
8,CGGGGCCACAGCAGAAGCGUUCACGUCGCGGCCCCUGUCAGAAUCUGGUGAAUCUGCGAAUUCUGCUGU [G1C U43A],0.202
9,CGGGGCCACAGCAGAAGCGUUCACGUCGCGGCCCCUGUCAGAGUCUGGUGAAUCUGCGAAUUCUGCUGU [G1C U43G],0.205
10,CGGGGCCACAGCAGAAGCGGUCACGUCGCGGCCCCUGUCAGAUUCUGGUGAAUCUGCGAAUUCUGCUGU [G1C U20G],0.131
11,CGGGGCCACAGCAGAAGCGCUCACGUCGCGGCCCCUGUCAGAUUCUGGUGAAUCUGCGAAUUCUGCUGU [G1C U20C],0.098
12,CGGGGCCACAGCAAAAGCGUUCACGUCGCGGCCCCUGUCAGAUUCUGGUGAAUCUGCGAAUUCUGCUGU [G1C G14A],0.152
13,CGGGGCCACAGCAUAAGCGUUCACGUCGCGGCCCCUGUCAGAUUCUGGUGAAUCUGCGAAUUCUGCUGU [G1C G14U],0.164
14,CGGGGCCACAGCAGAAGCGUUCACGUCGCGGCCCCUGUCAGAUUCUGGUUAAUCUGCGAAUUCUGCUGU [G1C G50U],0.169
15,CGGGGCCACAGCAGAAGCGUUCACGUCGCCGCCCCUGUCAGAUUCUGGUGAAUCUGCGAAUUCUGCUGU [G1C G30C],0.174
16,CGGGGCCACAGCAGAAGCGUUCACGUCGCAGCCCCUGUCAGAUUCUGGUGAAUCUGCGAAUUCUGCUGU [G1C G30A],0.192
17,CGGGGCCACAGCAGAAGCGUUCACGUCGCGGCCCCUGUCAGAUUCUGGUGAAUCUCCGAAUUCUGCUGU [G1C G56C],0.186
18,CGGGGCCACAGCAGAAGCGUUCACGUCGCGGCCCCUGUCAGAUUCUGGUGAAUCUACGAAUUCUGCUGU [G1C G56A],0.223
19,CGGGUCCACAGCAGAAGCGUUCACGUCGCGGCCCCUGUCAGAUUCUGGUGAAUCUGCGAAUUCUGCUGU [G1C G5U],0.114
20,CGGGGCCACAGCAGAAGCGUUCACGUCGCGGCCCCUGUCAGAUUCUAGUGAAUCUGCGAAUUCUGCUGU [G1C G47A],0.242
21,CGGGGCCACAGCAGAAGCGUUCACGUCGCGGCCCCUGUCAGAUUCUCGUGAAUCUGCGAAUUCUGCUGU [G1C G47C],0.213
22,CGGGGCCACAGCAGAAGCGUUCACGUCGCGGCCCCUGUCAGAUUCUUGUGAAUCUGCGAAUUCUGCUGU [G1C G47U],0.268
23,CGGGGCCACAGCAGAAGCGUUCACGUCGCGGCCCCUGUCAGAUUCUGGUGAAUCUGCGAAUUCUGAUGU [G1C C66A],0.226
24,CGGGGCCACAGCAGAAGCGUUCACGUCGCGGCCCCUGUCAGAUUCUGGUGAAUCUGCGAAUUCUGUUGU [G1C C66U],0.172
25,CGGGGCCACAGCAGAAGCGUUCACGUCCCGGCCCCUGUCAGAUUCUGGUGAAUCUGCGAAUUCUGCUGU [G1C G28C],0.12
26,CGGGGCCACAGCAGAAGCGUUCACGUCUCGGCCCCUGUCAGAUUCUGGUGAAUCUGCGAAUUCUGCUGU [G1C G28U],0.0985

row,Variant,self-cleavage
1,CGGGGCCACAGCAGAAGCGUUCACGUCGCGGCCCCUGUCAGAUUCUGGUGAAUCCGCGAAUUCUGCUGU [G1C U55C],0.167
2,CGGGGCCACAGCAGAAGCGUUCACGUCGCGGCCCCUGUCAGAUUCUGGUGAAUCAGCGAAUUCUGCUGU [G1C U55A],0.189
3,CGGGGCCACAGCAGAAGCGUUCACGUCGCGGCCCCAGUCAGAUUCUGGUGAAUCUGCGAAUUCUGCUGU [G1C U36A],0.0531
4,CGGGGCCACAGCAGAAGCGUUCACGUCGCGGCCCCCGUCAGAUUCUGGUGAAUCUGCGAAUUCUGCUGU [G1C U36C],0.177
5,CGUGGCCACAGCAGAAGCGUUCACGUCGCGGCCCCUGUCAGAUUCUGGUGAAUCUGCGAAUUCUGCUGU [G1C G3U],0.0766
6,CGAGGCCACAGCAGAAGCGUUCACGUCGCGGCCCCUGUCAGAUUCUGGUGAAUCUGCGAAUUCUGCUGU [G1C G3A],0.174
7,CGGGGCCACAGCAGAAGCGUUCACGUCGCGGCCCCUGUCACAUUCUGGUGAAUCUGCGAAUUCUGCUGU [G1C G41C],0.23
8,CGGGGCCACAGCAGAAGCGUUCACGUCGCGGCCCCUGUCAAAUUCUGGUGAAUCUGCGAAUUCUGCUGU [G1C G41A],0.19
9,CGGGGCCACAGCAGAAGCGUUCACGUCGCGGCCCCUGUCAGAUUCUGGUGAAUCUGCCAAUUCUGCUGU [G1C G58C],0.267
10,CGGGGCCACAGCAGAAGCGUUCACGUCGCGGCCCCUGUCAGAUUCUGGUGAAUCUGCAAAUUCUGCUGU [G1C G58A],0.172
11,CGGGGCCACAGCAGAAGCGUUCACGUCGCGGCCCCUGUCAGAUUCUGGUGAAUCUGCUAAUUCUGCUGU [G1C G58U],0.248
12,CAGGGCCACAGCAGAAGCGUUCACGUCGCGGCCCCUGUCAGAUUCUGGUGAAUCUGCGAAUUCUGCUGU [G1C G2A],0.408
13,CGGGGCCACAGCAGAAGCGUUCACGUCGCGGCCCCUGUCAGAUACUGGUGAAUCUGCGAAUUCUGCUGU [G1C U44A],0.231
14,CGGGGCCACAGCAGAAGCGUUCACGUCGCGGCCCCUGUCAGAUGCUGGUGAAUCUGCGAAUUCUGCUGU [G1C U44G],0.151
15,CGGGGCCACAGCAGAAGCGUUCACGUCGCGGCCCCUGUCAGAUUCUGGUGAAUCUGCGAAUGCUGCUGU [G1C U62G],0.177
16,CGGGGCCACAGCAGAAGCGUUCACGUCGCGGCCCCUGUCAGAUUCUGGUGAAUCUGCGAAUACUGCUGU [G1C U62A],0.279
17,CGGGGCCACAGCAGAAGCGUUCACGUCGCGGCCCCUGUCAGAUUCUGUUGAAUCUGCGAAUUCUGCUGU [G1C G48U],0.241
18,CGGGGCCACAGCAGAAGCGUUCACGUCGCGGCCCCUGUCAGAUUCUGGUGAAUCUGCGAAUUUUGCUGU [G1C C63U],0.164
19,CGGGGCCACAGCAGAAGCGUUCACGUCGCGGCCCCUGUCAGAUUCUGGUGAAUCUGCGAAUUAUGCUGU [G1C C63A],0.199
20,CGGGGCCACAGCAGAAGCGUUCACGUCGCGGCCCCUGUCAGAUUCUGGUGAAUCUGCGAAUUCAGCUGU [G1C U64A],0.236
21,CGGGGCCACAGCAGAAGCGUUCACGUCGCGGCCCCUGUCAGAUUCUGGUGAAUCUGGGAAUUCUGCUGU [G1C C57G],0.104
22,CGGGGCCACAGCAGAAGCGUUCACGUCGCGGCCCCUGUCAGAUUCUGGUGAAUCUGAGAAUUCUGCUGU [G1C C57A],0.116
23,CGGGGCCACAGCAGAAGCGUCCACGUCGCGGCCCCUGUCAGAUUCUGGUGAAUCUGCGAAUUCUGCUGU [G1C U21C],0.184
24,CGGGGCCACAGCAGAAGCGUGCACGUCGCGGCCCCUGUCAGAUUCUGGUGAAUCUGCGAAUUCUGCUGU [G1C U21G],0.244
25,CGGGGCCACAGCAGAAGCGUUCACGUCGCGGCCCCUCUCAGAUUCUGGUGAAUCUGCGAAUUCUGCUGU [G1C G37C],0.125
26,CGGGGCCACAGCAGAAGCGUUCACGUCGCGGCCCCUUUCAGAUUCUGGUGAAUCUGCGAAUUCUGCUGU [G1C G37U],0.101

row,Variant,self-cleavage
1,CGGGGCCACAGCAGAAGCGUUCACGUCGCGGCCCCUGUCAGAUUCUGGUGAAUGUGCGAAUUCUGCUGU [G1C C54G],0.321
2,CGGGGCCACAACAGAAGCGUUCACGUCGCGGCCCCUGUCAGAUUCUGGUGAAUCUGCGAAUUCUGCUGU [G1C G11A],0.14
3,CGGGGCCACACCAGAAGCGUUCACGUCGCGGCCCCUGUCAGAUUCUGGUGAAUCUGCGAAUUCUGCUGU [G1C G11C],0.165
4,CGGGGCCACAUCAGAAGCGUUCACGUCGCGGCCCCUGUCAGAUUCUGGUGAAUCUGCGAAUUCUGCUGU [G1C G11U],0.164
5,CGGGGCCACAGCAGAAGCGUUCACGUCGCGCCCCCUGUCAGAUUCUGGUGAAUCUGCGAAUUCUGCUGU [G1C G31C],0.0643
6,CGGGGCCACAGCAGAAGCGUUCACGUCGCGUCCCCUGUCAGAUUCUGGUGAAUCUGCGAAUUCUGCUGU [G1C G31U],0.266
7,CGGGGCCACAGCAGAAGCGUUCACGUCGCGACCCCUGUCAGAUUCUGGUGAAUCUGCGAAUUCUGCUGU [G1C G31A],0.272
8,CGGGGCCACAGCAGAAGCGUUCACGGCGCGGCCCCUGUCAGAUUCUGGUGAAUCUGCGAAUUCUGCUGU [G1C U26G],0.152
9,CGGGGCCACAGCAGAAGCGUUCACGCCGCGGCCCCUGUCAGAUUCUGGUGAAUCUGCGAAUUCUGCUGU [G1C U26C],0.162
10,CGGGGCCACAGCAGAAGCGUUCACGUCGCGGCCCCUGUCAGAUUCUGGUGAAUCUGCGAAUUCUUCUGU [G1C G65U],0.212
11,CGGGGCCACAGCAGAAGCGUUCACGUCGCGGCCCCUGCCAGAUUCUGGUGAAUCUGCGAAUUCUGCUGU [G1C U38C],0.231
12,CGGGGCCACAGCAGAAGCGUUCACGUCGCGGCCCCUGGCAGAUUCUGGUGAAUCUGCGAAUUCUGCUGU [G1C U38G],0.112
13,CGGGGCCACAGCAGAAGCAUUCACGUCGCGGCCCCUGUCAGAUUCUGGUGAAUCUGCGAAUUCUGCUGU [G1C G19A],0.086
14,CGGGGCCACAGCAGAAGCGUUCACGUCGCGGCCCCUGUCAGAUUCUGGUGAAACUGCGAAUUCUGCUGU [G1C U53A],0.225
15,CGGGGCCACAGCAGAAGCGUUCACGUCGCGGCCCCUGUCAGAUUCUGGUGAAGCUGCGAAUUCUGCUGU [G1C U53G],0.232
16,CGGGGCCACAGCAGAAGCGUUCACGUCGCGGCCCCUGUCAGAUUCCGGUGAAUCUGCGAAUUCUGCUGU [G1C U46C],0.248
17,CGGGGCCACAGCAGAAGCGUUCACGUCGCGGCCCCUGUCAGAUUCUGGGGAAUCUGCGAAUUCUGCUGU [G1C U49G],0.275
18,CGGGGCCACAGCAGAAGCGUUCACGUCGCGGCCCCUGUCAGAUUCUGGCGAAUCUGCGAAUUCUGCUGU [G1C U49C],0.116
19,CGGGGCCACAGCAGAAGCGUUCACGUCGCGGCCCCUGUCAGAUUUUGGUGAAUCUGCGAAUUCUGCUGU [G1C C45U],0.24
20,CGGGGCCACAGCAGAAGCGUUCACGUCGCGGCCCCUGUCAGAUUCUGGUGAAUCUGCGAACUCUGCUGU [G1C U61C],0.141
21,CGGGGCCACAGCAGAAGCGUUCACGUCGCGGCCCCUGUCAGAUUCUGGUGAAUCUGCGAAGUCUGCUGU [G1C U61G],0.271
22,CGGAGCCACAGCAGAAGCGUUCACGUCGCGGCCCCUGUCAGAUUCUGGUGAAUCUGCGAAUUCUGCUGU [G1C G4A],0.225
23,CGGCGCCACAGCAGAAGCGUUCACGUCGCGGCCCCUGUCAGAUUCUGGUGAAUCUGCGAAUUCUGCUGU [G1C G4C],0.216
24,CGGGGCCACAGCAGAAACGUUCACGUCGCGGCCCCUGUCAGAUUCUGGUGAAUCUGCGAAUUCUGCUGU [G1C G17A],0.124
25,CGGGGCCACAGCAGAACCGUUCACGUCGCGGCCCCUGUCAGAUUCUGGUGAAUCUGCGAAUUCUGCUGU [G1C G17C],0.0857
26,CGGGGCCACAGCAGAAUCGUUCACGUCGCGGCCCCUGUCAGAUUCUGGUGAAUCUGCGAAUUCUGCUGU [G1C G17U],0.155
